# Numbered stars: 1 amine (or outer) side, 2 acyl side, 3 side chain; on linkers, the order of the positions; unused ones are H or OH. Bridge positions count the residues as written; N and C are the ends. Square brackets hold non-standard residues; d marks the D form. Ends that are not written are not given here. NH(CH2CH2O)4CH2CO = O=C(COCCOCCOCCOCCN[*:1])[*:2]; Oic = O=C(O)[C@@H]1C[C@@H]2CCCC[C@@H]2N1; PEG8 = NCCOCCOCCOCCOCCOCCOCCOCCOCCC(=O)O; tBuAla = CC(C)(C)C[C@H](N)C(=O)O; Cit = NC(=O)NCCC[C@H](N)C(=O)O; Pen = CC(C)(S)[C@H](N)C(=O)O; NMeC = CN[C@@H](CS)C(=O)O; PEG3 = NCCOCCOCCOCCC(=O)O; Orn = NCCC[C@H](N)C(=O)O; Nva = CCC[C@H](N)C(=O)O; Abu = CC[C@H](N)C(=O)O; PEG2 = NCCOCCOCCC(=O)O; Sar = CNCC(=O)O
# T1: recombinant human MASP1 active protease (amino acids 297-699, C-terminal His Tag) (human, UniProt P48740 297-699)
# T1 sequence: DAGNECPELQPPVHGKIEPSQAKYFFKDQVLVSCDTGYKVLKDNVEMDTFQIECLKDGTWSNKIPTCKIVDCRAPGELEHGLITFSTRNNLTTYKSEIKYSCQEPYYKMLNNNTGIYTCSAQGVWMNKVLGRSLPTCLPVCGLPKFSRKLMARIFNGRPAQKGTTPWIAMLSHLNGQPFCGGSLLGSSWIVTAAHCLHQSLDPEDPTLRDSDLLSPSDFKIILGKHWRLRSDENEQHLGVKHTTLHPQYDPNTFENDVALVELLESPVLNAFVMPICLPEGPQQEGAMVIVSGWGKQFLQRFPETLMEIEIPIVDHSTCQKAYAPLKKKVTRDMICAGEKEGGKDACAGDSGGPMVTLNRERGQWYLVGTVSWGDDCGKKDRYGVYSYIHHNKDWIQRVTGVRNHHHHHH
# Columns and labels:
# [1] = target: recombinant human MASP2 active protease (amino acids 297-686, C-terminal His Tag) (human, UniProt O00187 297-686); assay: cell-based or functional assay
# Chain of recombinant human MASP2 active protease (amino acids 297-686, C-terminal His Tag) (O00187 other isoform, or with tags, fused parts or gaps limits assumed): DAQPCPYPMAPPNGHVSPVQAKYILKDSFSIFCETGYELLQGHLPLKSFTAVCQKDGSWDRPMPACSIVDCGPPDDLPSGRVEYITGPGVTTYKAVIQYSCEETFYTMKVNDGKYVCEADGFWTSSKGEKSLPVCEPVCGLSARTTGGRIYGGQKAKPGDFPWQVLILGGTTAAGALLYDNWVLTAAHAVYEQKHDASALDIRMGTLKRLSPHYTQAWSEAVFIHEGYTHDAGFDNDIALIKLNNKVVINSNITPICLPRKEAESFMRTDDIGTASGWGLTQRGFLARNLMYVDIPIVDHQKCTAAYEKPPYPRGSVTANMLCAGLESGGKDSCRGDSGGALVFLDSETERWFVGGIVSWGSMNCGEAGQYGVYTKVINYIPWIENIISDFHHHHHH
# [2] = target: T1, recombinant human MASP1 active protease …; assay: cell-based or functional assay
human MASP2 IC50 [1],human MASP1 IC50 [2],Binder
0.051 µM,0.0022 µM,[Nva]ICSRS[tBuAla]PPI[Pen]IPD-NH2 (disulfide 3-11; N-terminus assumed; SMILES CCC[C@H](N)C(=O)N[C@H](C(=O)N[C@H]1CSSC(C)(C)[C@@H](C(=O)N[C@H](C(=O)N2CCC[C@H]2C(=O)N[C@@H](CC(=O)O)C(N)=O)[C@@H](C)CC)NC(=O)[C@H]([C@@H](C)CC)NC(=O)[C@@H]2CCCN2C(=O)[C@@H]2CCCN2C(=O)[C@H](CC(C)(C)C)NC(=O)[C@H](CO)NC(=O)[C@H](CCCNC(=N)N)NC(=O)[C@H](CO)NC1=O)[C@@H](C)CC) [(Nva)-IC+SRS-((tBu)A)-PPI-(Pen)+IPD-NH2]
0.052 µM,0.0022 µM,[Sar]ICSRS[tBuAla]PPI[Pen]IP-{PEG8-NH2} (disulfide 3-11) [((N-Me)G)-IC+SRS-((tBu)A)-PPI-(Pen)+IP-(PEG8(28 atoms))-NH2]
0.03 µM,0.0022 µM,[Sar]ICSRS[tBuAla]PPI[Pen]IP[NH(CH2CH2O)4CH2CO]-NH2 (disulfide 3-11; N-terminus assumed; SMILES CC[C@H](C)[C@H](NC(=O)CNC)C(=O)N[C@H]1CSSC(C)(C)[C@@H](C(=O)N[C@H](C(=O)N2CCC[C@H]2C(=O)NCCOCCOCCOCCOCC(N)=O)[C@@H](C)CC)NC(=O)[C@H]([C@@H](C)CC)NC(=O)[C@@H]2CCCN2C(=O)[C@@H]2CCCN2C(=O)[C@H](CC(C)(C)C)NC(=O)[C@H](CO)NC(=O)[C@H](CCCNC(=N)N)NC(=O)[C@H](CO)NC1=O) [((N-Me)G)-IC+SRS-((tBu)A)-PPI-(Pen)+IP-(PEG4-CH2CO2H (15 atoms))-NH2]
0.11 µM,0.0024 µM,KICSRS[tBuAla]PPI[NMeC]I-NH2 (disulfide 3-11; N-terminus assumed; SMILES CC[C@H](C)[C@H](NC(=O)[C@@H]1CSSC[C@H](NC(=O)[C@@H](NC(=O)[C@@H](N)CCCCN)[C@@H](C)CC)C(=O)N[C@@H](CO)C(=O)N[C@@H](CCCNC(=N)N)C(=O)N[C@@H](CO)C(=O)N[C@@H](CC(C)(C)C)C(=O)N2CCC[C@H]2C(=O)N2CCC[C@H]2C(=O)N[C@@H]([C@@H](C)CC)C(=O)N1C)C(N)=O) [KIC+SRS-((tBu)A)-PPI-((N-Me)C)+I-NH2]
0.07 µM,0.0022 µM,LICSRS[tBuAla]PPI[Pen]IPD-NH2 (disulfide 3-11; N-terminus assumed; SMILES CC[C@H](C)[C@H](NC(=O)[C@@H](N)CC(C)C)C(=O)N[C@H]1CSSC(C)(C)[C@@H](C(=O)N[C@H](C(=O)N2CCC[C@H]2C(=O)N[C@@H](CC(=O)O)C(N)=O)[C@@H](C)CC)NC(=O)[C@H]([C@@H](C)CC)NC(=O)[C@@H]2CCCN2C(=O)[C@@H]2CCCN2C(=O)[C@H](CC(C)(C)C)NC(=O)[C@H](CO)NC(=O)[C@H](CCCNC(=N)N)NC(=O)[C@H](CO)NC1=O) [LIC+SRS-((tBu)A)-PPI-(Pen)+IPD-NH2]
0.043 µM,0.0022 µM,[Sar]ICSRSLP[Oic]I[Pen]IP-NH2 (disulfide 3-11; also: HCl salt) [((N-Me)G)-IC+SRSLP-(Oic)-I-(Pen)+IP-NH2 (HCl salt)]

# Second part, the binder before the results:
Binder,human MASP2 IC50 [1],human MASP1 IC50 [2]
[Sar]ICSRSLP[Oic]I[Pen]IP[PEG2]-NH2 (disulfide 3-11; N-terminus assumed; SMILES CC[C@H](C)[C@H](NC(=O)CNC)C(=O)N[C@H]1CSSC(C)(C)[C@@H](C(=O)N[C@H](C(=O)N2CCC[C@H]2C(=O)NCCOCCOCCC(N)=O)[C@@H](C)CC)NC(=O)[C@H]([C@@H](C)CC)NC(=O)[C@@H]2C[C@@H]3CCCC[C@@H]3N2C(=O)[C@@H]2CCCN2C(=O)[C@H](CC(C)C)NC(=O)[C@H](CO)NC(=O)[C@H](CCCNC(=N)N)NC(=O)[C@H](CO)NC1=O) [((N-Me)G)-IC+SRSLP-(Oic)-I-(Pen)+IP-(PEG1(10 atoms))-NH2],0.087 µM,0.0023 µM
[Abu]ICSRS[tBuAla]PPICIPD-NH2 (disulfide 3-11; N-terminus assumed; SMILES CC[C@H](N)C(=O)N[C@H](C(=O)N[C@H]1CSSC[C@@H](C(=O)N[C@H](C(=O)N2CCC[C@H]2C(=O)N[C@@H](CC(=O)O)C(N)=O)[C@@H](C)CC)NC(=O)[C@H]([C@@H](C)CC)NC(=O)[C@@H]2CCCN2C(=O)[C@@H]2CCCN2C(=O)[C@H](CC(C)(C)C)NC(=O)[C@H](CO)NC(=O)[C@H](CCCNC(=N)N)NC(=O)[C@H](CO)NC1=O)[C@@H](C)CC) [(Abu)-IC+SRS-((tBu)A)-PPIC+IPD-NH2],0.12 µM,0.0022 µM
[Sar]ICSRS[tBuAla]PPI[Pen]IP[PEG3]-NH2 (disulfide 3-11; N-terminus assumed; SMILES CC[C@H](C)[C@H](NC(=O)CNC)C(=O)N[C@H]1CSSC(C)(C)[C@@H](C(=O)N[C@H](C(=O)N2CCC[C@H]2C(=O)NCCOCCOCCOCCC(N)=O)[C@@H](C)CC)NC(=O)[C@H]([C@@H](C)CC)NC(=O)[C@@H]2CCCN2C(=O)[C@@H]2CCCN2C(=O)[C@H](CC(C)(C)C)NC(=O)[C@H](CO)NC(=O)[C@H](CCCNC(=N)N)NC(=O)[C@H](CO)NC1=O) [((N-Me)G)-IC+SRS-((tBu)A)-PPI-(Pen)+IP-(PEG2(13 atoms))-NH2],0.042 µM,0.0022 µM
[Cit]ICSRS[tBuAla]PPI[Pen]IPD-OH (disulfide 3-11; N-terminus assumed; SMILES CC[C@H](C)[C@H](NC(=O)[C@@H](N)CCCNC(N)=O)C(=O)N[C@H]1CSSC(C)(C)[C@@H](C(=O)N[C@H](C(=O)N2CCC[C@H]2C(=O)N[C@@H](CC(=O)O)C(=O)O)[C@@H](C)CC)NC(=O)[C@H]([C@@H](C)CC)NC(=O)[C@@H]2CCCN2C(=O)[C@@H]2CCCN2C(=O)[C@H](CC(C)(C)C)NC(=O)[C@H](CO)NC(=O)[C@H](CCCNC(=N)N)NC(=O)[C@H](CO)NC1=O) [(Cit)-IC+SRS-((tBu)A)-PPI-(Pen)+IPD-OH],0.065 µM,0.0022 µM
[Orn]ICSRS[tBuAla]PPI[NMeC]IPD-NH2 (disulfide 3-11; also: HCl salt) [(Orn)-IC+SRS-((tBu)A)-PPI-((N-Me)C)+IPD-NH2 (HCl salt)],0.17 µM,0.0024 µM
AICSRSLP[Oic]I[Pen]IP-NH2 (disulfide 3-11; N-terminus assumed; SMILES CC[C@H](C)[C@H](NC(=O)[C@H](C)N)C(=O)N[C@H]1CSSC(C)(C)[C@@H](C(=O)N[C@H](C(=O)N2CCC[C@H]2C(N)=O)[C@@H](C)CC)NC(=O)[C@H]([C@@H](C)CC)NC(=O)[C@@H]2C[C@@H]3CCCC[C@@H]3N2C(=O)[C@@H]2CCCN2C(=O)[C@H](CC(C)C)NC(=O)[C@H](CO)NC(=O)[C@H](CCCNC(=N)N)NC(=O)[C@H](CO)NC1=O) [AIC+SRSLP-(Oic)-I-(Pen)+IP-NH2],0.063 µM,0.0022 µM
[Orn]ICSRS[tBuAla]PPI[NMeC]IPD-NH2 (disulfide 3-11; N-terminus assumed; SMILES CC[C@H](C)[C@H](NC(=O)[C@@H](N)CCCN)C(=O)N[C@H]1CSSC[C@@H](C(=O)N[C@H](C(=O)N2CCC[C@H]2C(=O)N[C@@H](CC(=O)O)C(N)=O)[C@@H](C)CC)N(C)C(=O)[C@H]([C@@H](C)CC)NC(=O)[C@@H]2CCCN2C(=O)[C@@H]2CCCN2C(=O)[C@H](CC(C)(C)C)NC(=O)[C@H](CO)NC(=O)[C@H](CCCNC(=N)N)NC(=O)[C@H](CO)NC1=O) [(Orn)-IC+SRS-((tBu)A)-PPI-((N-Me)C)+IPD-NH2],0.15 µM,0.0024 µM
